Experimental data: article PMC3963067

Target: mysterin/RNF213, wild type, full length, C-terminally 3 × FLAG-tagged (mysterin-FLAG) and C-terminally cMyc-tagged (mysterin-Myc) copies (human) (UniProt Q63HN8)
Experiment: co-IP; two differently tagged copies (C-terminal 3 × FLAG and cMyc) co-expressed in HEK-293 cells; lysate immunoprecipitated with anti-FLAG antibody, immunoblot with anti-Myc antibody; lysis buffer 1% NP-40, 150 mM KCl, 50 mM HEPES-NaOH pH 7.5
Conditions: remark: other sources report otherwise

- efficiency of the co-IP (co-IP divided by the basal expression level): 1 to 3%
Substance: mysterin/RNF213, wild type, full length, C-terminally 3 × FLAG-tagged (mysterin-FLAG) and C-terminally cMyc-tagged (mysterin-Myc) copies, Q63HN8 1-5207
